In the supplement of paper PMC9732359:
± gives the uncertainty stated by the source.

Assay: protein stability index of a GFP-peptide fusion (yeast GPS) (PSI 1-4); higher = more stable; sorted into four equal gates, so the index is relative within each strain
Outline: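 Peptides tiling yeast proteins in 17-residue segments were fused downstream of GFP, with Cherry expressed from the same plasmid. As a pooled library in yeast, mid-log cultures grown in leucine-free medium were sorted into four equal gates by GFP/Cherry fluorescence ratio. Gate plasmids were PCR-amplified and Illumina-sequenced, and barcodes linked reads to strains. Each peptide received a protein stability index equal to the sum of each gate's read frequency times its gate number.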

VLDVDPKYAKQKDKSDT [ISW2]
protein stability index (doa10∆): 2.91 ± 0.11
protein stability index (pdr5∆): 3.01 ± 0.069
protein stability index (san1∆): 3.05 ± 0.14
protein stability index (ubr1∆): 3.03 ± 0.084

DVAYLLKSESATSQYLK [YGL172W/NUP49]
protein stability index (doa10∆): 2.25 ± 0.14
protein stability index (pdr5∆): 3.21 ± 0.094
protein stability index (san1∆): 2.94 ± 0.1
protein stability index (ubr1∆): 3.03 ± 0.11

LPELWALLNFVLPKIFN [SNF2]
protein stability index (doa10∆): 2.38 ± 0.074
protein stability index (pdr5∆): 1.89 ± 0.062
protein stability index (san1∆): 2.07 ± 0.098
protein stability index (ubr1∆): 1.51 ± 0.038

VNITKFSKFERSKSSHK [SKI6]
protein stability index (doa10∆): 2.73 ± 0.095
protein stability index (pdr5∆): 2.65 ± 0.059
protein stability index (san1∆): 2.76 ± 0.064
protein stability index (ubr1∆): 2.62 ± 0.048

KEILDNILPFLWGPHGL [ECM29]
protein stability index (doa10∆): 2.67 ± 0.24
protein stability index (pdr5∆): 3.09 ± 0.24
protein stability index (ubr1∆): 3.37 ± 0.17

ERAELETDEYISYTSHI [RPN1]
protein stability index (doa10∆): 3.14 ± 0.071
protein stability index (pdr5∆): 3.19 ± 0.076
protein stability index (san1∆): 3.01 ± 0.065
protein stability index (ubr1∆): 3.19 ± 0.05

FVSRIPIMFQDFDDSTA [IRR1]
protein stability index (doa10∆): 2.1 ± 0.04
protein stability index (pdr5∆): 1.96 ± 0.042
protein stability index (san1∆): 1.69 ± 0.053
protein stability index (ubr1∆): 2 ± 0.03

NVKYRAVVFKPFKGEVV [RPB7]
protein stability index (doa10∆): 2.96 ± 0.12
protein stability index (pdr5∆): 2.85 ± 0.047
protein stability index (san1∆): 2.43 ± 0.075
protein stability index (ubr1∆): 2.86 ± 0.075

GIIVAVDSRATAGNWVA [PRE2]
protein stability index (doa10∆): 1.14 ± 0.064
protein stability index (pdr5∆): 1.46 ± 0.079
protein stability index (san1∆): 1.24 ± 0.13
protein stability index (ubr1∆): 1.54 ± 0.082

KIDLASGKITDFIKFDA [RPS4A]
protein stability index (doa10∆): 3.26 ± 0.072
protein stability index (pdr5∆): 3.21 ± 0.078
protein stability index (san1∆): 3.13 ± 0.07
protein stability index (ubr1∆): 3.35 ± 0.082

DPFFAQSEDLSHAVEFF [YML103C/NUP188]
protein stability index (doa10∆): 3.23 ± 0.056
protein stability index (pdr5∆): 3.17 ± 0.057
protein stability index (san1∆): 3.31 ± 0.045
protein stability index (ubr1∆): 3.14 ± 0.042

WSKESNYDCKVISIVGG [PRP28]
protein stability index (doa10∆): 3.06 ± 0.11
protein stability index (pdr5∆): 3.06 ± 0.11
protein stability index (san1∆): 2.31 ± 0.097
protein stability index (ubr1∆): 2.74 ± 0.094

EIEELKSSIQNLNELES [SMC3]
protein stability index (doa10∆): 1.66 ± 0.2
protein stability index (pdr5∆): 2.06 ± 0.17
protein stability index (san1∆): 2.07 ± 0.28
protein stability index (ubr1∆): 2.71 ± 0.21

SLTISLYASDYASYFPY [RPN7]
protein stability index (doa10∆): 1.42 ± 0.036
protein stability index (pdr5∆): 1.64 ± 0.035
protein stability index (san1∆): 1.6 ± 0.049
protein stability index (ubr1∆): 1.67 ± 0.028

EEELWNSPSKGNSERPS [YIL149C/MLP2]
protein stability index (doa10∆): 3.11 ± 0.1
protein stability index (pdr5∆): 3.38 ± 0.083
protein stability index (san1∆): 3.24 ± 0.061
protein stability index (ubr1∆): 3.27 ± 0.095

AAGKRISHIEKRIESLQ [SMC1]
protein stability index (doa10∆): 3.09 ± 0.099
protein stability index (pdr5∆): 3.07 ± 0.096
protein stability index (san1∆): 2.93 ± 0.073
protein stability index (ubr1∆): 3.08 ± 0.095

LPQSEWKAPSSIVLDSE [DIS3]
protein stability index (doa10∆): 3 ± 0.062
protein stability index (pdr5∆): 3.34 ± 0.069
protein stability index (san1∆): 3.14 ± 0.052
protein stability index (ubr1∆): 3.15 ± 0.05

SSRLEFVKGISRDIKAL [YML103C/NUP188]
protein stability index (doa10∆): 2.39 ± 0.081
protein stability index (pdr5∆): 1.81 ± 0.057
protein stability index (san1∆): 1.99 ± 0.085
protein stability index (ubr1∆): 1.62 ± 0.04

VSMKANKYQIKKAVKEL [RPL25]
protein stability index (doa10∆): 1.18 ± 0.065
protein stability index (pdr5∆): 1.52 ± 0.07
protein stability index (san1∆): 2.98 ± 0.056
protein stability index (ubr1∆): 2.97 ± 0.071

STAIKSLVALGIDPQDL [CDC53]
protein stability index (doa10∆): 2.29 ± 0.077
protein stability index (pdr5∆): 2.67 ± 0.066
protein stability index (san1∆): 2.81 ± 0.053
protein stability index (ubr1∆): 2.45 ± 0.049

VSNIEGILDEIMFNHAR [RGR1]
protein stability index (doa10∆): 2.77 ± 0.054
protein stability index (pdr5∆): 2.53 ± 0.053
protein stability index (san1∆): 2.46 ± 0.065
protein stability index (ubr1∆): 2.99 ± 0.031

NLHALSMSLQSKNLGEI [SWI1]
protein stability index (doa10∆): 2.57 ± 0.058
protein stability index (pdr5∆): 2.61 ± 0.077
protein stability index (san1∆): 2.04 ± 0.17
protein stability index (ubr1∆): 2.66 ± 0.068

VIVPLSTLSNWSSEFAK [SNF2]
protein stability index (doa10∆): 2.65 ± 0.049
protein stability index (pdr5∆): 2.35 ± 0.06
protein stability index (san1∆): 2.52 ± 0.051
protein stability index (ubr1∆): 2.6 ± 0.038

LPSGRQDGVLLVALSNE [FAS2]
protein stability index (doa10∆): 2.4 ± 0.087
protein stability index (pdr5∆): 2.52 ± 0.097
protein stability index (san1∆): 2.44 ± 0.091
protein stability index (ubr1∆): 1.91 ± 0.13

SAAGMTAAIDSVVSQIE [FAS1]
protein stability index (doa10∆): 3.49 ± 0.23
protein stability index (pdr5∆): 3.15 ± 0.11
protein stability index (san1∆): 3.04 ± 0.24
protein stability index (ubr1∆): 2.81 ± 0.11

ELDQEYRSCETQDESEI [SMC4]
protein stability index (doa10∆): 3.11 ± 0.12
protein stability index (pdr5∆): 3.24 ± 0.21
protein stability index (san1∆): 2.67 ± 0.19
protein stability index (ubr1∆): 3.31 ± 0.091

TRLYDYEIRDIDQDIHG [SSN2]
protein stability index (doa10∆): 3.54 ± 0.11
protein stability index (pdr5∆): 3.55 ± 0.16
protein stability index (san1∆): 3.48 ± 0.094
protein stability index (ubr1∆): 3.49 ± 0.11

RSSYMLELVNTPLTENI [YCG1]
protein stability index (doa10∆): 3.11 ± 0.096
protein stability index (pdr5∆): 3.18 ± 0.082
protein stability index (san1∆): 3.04 ± 0.073
protein stability index (ubr1∆): 2.91 ± 0.084

KRQFNNSYWLIILLGVL [ITC1]
protein stability index (doa10∆): 2.16 ± 0.066
protein stability index (pdr5∆): 1.6 ± 0.056
protein stability index (san1∆): 1.5 ± 0.1
protein stability index (ubr1∆): 1.97 ± 0.04

PIIIYGTENTERPPLLP [YOR098C/NUP1]
protein stability index (doa10∆): 3.13 ± 0.09
protein stability index (pdr5∆): 2.74 ± 0.1
protein stability index (san1∆): 2.97 ± 0.06
protein stability index (ubr1∆): 2.94 ± 0.048

TATASLGVIHKGNLLEG [RPN2]
protein stability index (doa10∆): 2.96 ± 0.16
protein stability index (pdr5∆): 1.84 ± 0.082
protein stability index (san1∆): 1.98 ± 0.16
protein stability index (ubr1∆): 2.72 ± 0.081

DTEMKMKSLLTELSNKE [YIL149C/MLP2]
protein stability index (doa10∆): 3.31 ± 0.065
protein stability index (pdr5∆): 3.44 ± 0.058
protein stability index (san1∆): 3.21 ± 0.045
protein stability index (ubr1∆): 3.35 ± 0.049

FKATIQILQGICKNCSA [RPO31]
protein stability index (doa10∆): 1.69 ± 0.044
protein stability index (pdr5∆): 1.77 ± 0.038
protein stability index (san1∆): 1.76 ± 0.061
protein stability index (ubr1∆): 1.79 ± 0.046

LVNGFSQSQQKLLKEKV [MED2]
protein stability index (doa10∆): 2.03 ± 0.055
protein stability index (pdr5∆): 2.27 ± 0.068
protein stability index (san1∆): 2.41 ± 0.066
protein stability index (ubr1∆): 2.61 ± 0.052

HHELIKVKHDSQPFIKF [SSN2]
protein stability index (doa10∆): 3.14 ± 0.085
protein stability index (pdr5∆): 2.71 ± 0.099
protein stability index (san1∆): 2.86 ± 0.11
protein stability index (ubr1∆): 2.88 ± 0.06

QDENIGLSMLAKLKELA [RPC31]
protein stability index (doa10∆): 3.14 ± 0.071
protein stability index (pdr5∆): 3.46 ± 0.074
protein stability index (san1∆): 3.05 ± 0.092
protein stability index (ubr1∆): 3.16 ± 0.053

YITAKNNVVINFKDMSH [PRP8]
protein stability index (doa10∆): 2.26 ± 0.052
protein stability index (pdr5∆): 2.02 ± 0.047
protein stability index (san1∆): 2.42 ± 0.063
protein stability index (ubr1∆): 2.14 ± 0.043

ECPAIPIFNYIFTEKIY [YJL039C/NUP192]
protein stability index (doa10∆): 1.34 ± 0.035
protein stability index (pdr5∆): 1.46 ± 0.038
protein stability index (san1∆): 1.43 ± 0.071
protein stability index (ubr1∆): 1.4 ± 0.034

RVISEYYSRITLLRLNE [RPN5]
protein stability index (doa10∆): 2.65 ± 0.076
protein stability index (pdr5∆): 1.67 ± 0.05
protein stability index (san1∆): 1.68 ± 0.084
protein stability index (ubr1∆): 1.87 ± 0.068

EDNAGVIANPKGEMKGS [RPL23A]
protein stability index (doa10∆): 1.82 ± 0.18
protein stability index (pdr5∆): 1.92 ± 0.056
protein stability index (san1∆): 2.28 ± 0.13
protein stability index (ubr1∆): 1.85 ± 0.059

LEGSVSLPRFSKPVLIV [DIS3]
protein stability index (doa10∆): 2.67 ± 0.072
protein stability index (pdr5∆): 2.57 ± 0.063
protein stability index (san1∆): 2.19 ± 0.06
protein stability index (ubr1∆): 3.02 ± 0.062

YRATSLDPSLRAPIYHS [YML031W/NDC1]
protein stability index (doa10∆): 2.4 ± 0.068
protein stability index (pdr5∆): 2.68 ± 0.055
protein stability index (san1∆): 2.44 ± 0.058
protein stability index (ubr1∆): 2.44 ± 0.037

IRNCATEAGFFAIRDDR [RPT4]
protein stability index (doa10∆): 2.82 ± 0.062
protein stability index (pdr5∆): 3.24 ± 0.079
protein stability index (san1∆): 2.78 ± 0.097
protein stability index (ubr1∆): 2.91 ± 0.042

PIPIAVLDSYTPSTNEP [FAS1]
protein stability index (doa10∆): 2.78 ± 0.07
protein stability index (pdr5∆): 2.59 ± 0.063
protein stability index (san1∆): 2.69 ± 0.074
protein stability index (ubr1∆): 2.85 ± 0.041

DSSAHFKGALTIKILPE [YMR129W/POM152]
protein stability index (doa10∆): 2.67 ± 0.076
protein stability index (pdr5∆): 2.62 ± 0.064
protein stability index (san1∆): 2.37 ± 0.058
protein stability index (ubr1∆): 2.49 ± 0.042

DANPSSQIIARNEEILR [SMC2]
protein stability index (doa10∆): 2.94 ± 0.08
protein stability index (pdr5∆): 2.79 ± 0.083
protein stability index (san1∆): 3.21 ± 0.076
protein stability index (ubr1∆): 2.76 ± 0.11

AKRDYIISRLNADFQKP [FAS1]
protein stability index (doa10∆): 3.32 ± 0.13
protein stability index (pdr5∆): 3.07 ± 0.085
protein stability index (san1∆): 2.94 ± 0.091
protein stability index (ubr1∆): 3.22 ± 0.077

YLESLFAKQVDVQLERV [IRR1]
protein stability index (doa10∆): 2.49 ± 0.095
protein stability index (pdr5∆): 2.19 ± 0.074
protein stability index (san1∆): 2.36 ± 0.12
protein stability index (ubr1∆): 2.5 ± 0.051

FSYFFESFESYHNLTTH [RPN6]
protein stability index (doa10∆): 2.61 ± 0.089
protein stability index (pdr5∆): 2.65 ± 0.082
protein stability index (san1∆): 2.85 ± 0.084
protein stability index (ubr1∆): 2.78 ± 0.066

DIDVTIVSKEYEKNFEA [ESC2]
protein stability index (doa10∆): 3.27 ± 0.15
protein stability index (pdr5∆): 3.06 ± 0.14
protein stability index (san1∆): 3.24 ± 0.088
protein stability index (ubr1∆): 3.42 ± 0.16

QWSATWIAMRREKRDRT [PRP8]
protein stability index (doa10∆): 2.23 ± 0.089
protein stability index (pdr5∆): 2.64 ± 0.081
protein stability index (san1∆): 2.76 ± 0.18
protein stability index (ubr1∆): 2.73 ± 0.095

ATLYIPKALRFDRLVAG [FAS2]
protein stability index (doa10∆): 2.88 ± 0.22
protein stability index (pdr5∆): 1.23 ± 0.068
protein stability index (ubr1∆): 1.44 ± 0.09
